Sequences and labels used below:
B2: fly Su(H) (aa 98–523) (domain or fragment)
chain: not shown
notes: Suppressor of Hairless, Drosophila, residues 98-523; also called CSL

Assay in all cases: native gel or EMSA; complexes formed on IRDye-labelled 2xCSL and 1xSPS DNA probes in the same binding reaction; RBPJ/Su(H) 10 to 320 nM, 1 µM NICD/Mastermind; native polyacrylamide gel
Conditions in all cases: both partners purified
A general note: In EMSA bound probe runs differently from free probe, usually more slowly.

For one experiment, the target named is T1, mouse RBPJ (aa 53–474) (mouse, UniProt P31266 53-474).
T1 construct: RBPJ, mouse, residues 53-474; also called CSL
T1 sequence (P31266 53-474): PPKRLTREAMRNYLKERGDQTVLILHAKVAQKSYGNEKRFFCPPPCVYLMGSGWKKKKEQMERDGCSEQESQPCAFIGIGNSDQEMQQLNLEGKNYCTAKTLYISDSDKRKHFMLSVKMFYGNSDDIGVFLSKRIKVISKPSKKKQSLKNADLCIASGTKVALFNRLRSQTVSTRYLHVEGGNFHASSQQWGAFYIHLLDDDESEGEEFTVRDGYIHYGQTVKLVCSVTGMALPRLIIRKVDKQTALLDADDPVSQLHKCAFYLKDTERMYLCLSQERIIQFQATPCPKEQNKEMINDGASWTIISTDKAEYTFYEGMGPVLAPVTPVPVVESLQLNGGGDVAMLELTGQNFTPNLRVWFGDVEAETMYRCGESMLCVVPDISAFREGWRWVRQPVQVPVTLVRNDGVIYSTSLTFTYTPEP

A further experiment has as its target T2, fly NICD (aa 1763–2412) (Drosophila, UniProt P07207 1763-2412).
T2 construct: Notch intracellular domain, Drosophila, residues 1763-2412; not the full-length NICD; also called Notch intracellular domain
T2 sequence (looked up): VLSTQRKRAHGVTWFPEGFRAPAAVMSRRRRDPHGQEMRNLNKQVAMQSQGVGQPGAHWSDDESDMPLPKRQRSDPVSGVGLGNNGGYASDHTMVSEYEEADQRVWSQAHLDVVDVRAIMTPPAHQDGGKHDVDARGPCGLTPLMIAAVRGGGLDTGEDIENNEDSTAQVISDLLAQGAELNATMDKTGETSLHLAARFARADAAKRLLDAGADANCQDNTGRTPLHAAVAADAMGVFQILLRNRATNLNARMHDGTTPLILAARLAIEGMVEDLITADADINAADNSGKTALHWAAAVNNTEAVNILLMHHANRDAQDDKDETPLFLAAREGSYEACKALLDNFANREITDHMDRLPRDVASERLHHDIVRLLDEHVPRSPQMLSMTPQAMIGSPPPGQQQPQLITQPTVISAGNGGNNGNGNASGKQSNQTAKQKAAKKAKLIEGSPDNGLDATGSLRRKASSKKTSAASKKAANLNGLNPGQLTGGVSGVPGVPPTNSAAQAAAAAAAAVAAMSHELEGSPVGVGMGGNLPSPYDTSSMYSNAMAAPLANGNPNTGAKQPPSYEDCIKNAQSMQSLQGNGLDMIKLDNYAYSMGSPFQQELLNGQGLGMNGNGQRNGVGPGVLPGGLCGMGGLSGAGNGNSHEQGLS

The experiment “fly Su(H) (aa 98–523)” has as its target B2.

These results are taken from article PMC7213981, “Enhancer architecture sensitizes cell specific responses to Notch gene dose via a bind and discard mechanism” (eLife, 2019).

fly Su(H) (aa 98–523), sequence (P28159 98-523): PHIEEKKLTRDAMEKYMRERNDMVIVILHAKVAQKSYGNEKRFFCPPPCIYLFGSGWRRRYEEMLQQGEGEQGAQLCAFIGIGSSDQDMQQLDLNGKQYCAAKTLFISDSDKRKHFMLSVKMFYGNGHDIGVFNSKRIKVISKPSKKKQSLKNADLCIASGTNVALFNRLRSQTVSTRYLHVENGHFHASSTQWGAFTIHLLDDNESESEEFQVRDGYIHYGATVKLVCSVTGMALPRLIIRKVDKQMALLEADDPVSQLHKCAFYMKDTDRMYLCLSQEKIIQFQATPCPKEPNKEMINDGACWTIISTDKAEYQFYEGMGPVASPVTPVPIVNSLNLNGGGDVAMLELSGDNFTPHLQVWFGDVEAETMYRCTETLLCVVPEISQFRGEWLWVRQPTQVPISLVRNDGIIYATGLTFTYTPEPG

B1: human MAML1 (aa 1–280) (domain or fragment, UniProt Q92585 1-280, looked up)
chain: MVLPTCPMAEFALPRHSAVMERLRRRIELCRRHHSTCEARYEAVSPERLELERQHTFALHQRCIQAKAKRAGKHRQPPAATAPAPAAPAPRLDAADGPEHGRPATHLHDTVKRNLDSATSPQNGDQQNGYGDLFPGHKKTRREAPLGVAISSNGLPPASPLGQSDKPSGADALQSSGKHSLGLDSLNKKRLADSSLHLNGGSNPSESFPLSLNKELKQEPVEDLPCMITGTVGSISQSNLMPDLNLNEQEWKELIEELNRSVPDEDMKDLFNEDFEEKKD
notes: Mastermind-like protein 1, human, residues 1-280; not the full-length protein; The results list MAML1 among the 'mouse' proteins, the methods say human MAML1; also called Mastermind
In the case of B1, in the experiment with mouse RBPJ (aa 53–474), the binding result is “binds”.
As for B2, the binding result with fly NICD (aa 1763–2412) is on record as “binds”.

B3: mouse N1ICD (aa 1744–2113) (domain or fragment, UniProt Q01705 1744-2113, looked up)
chain: VLLSRKRRRQHGQLWFPEGFKVSEASKKKRREPLGEDSVGLKPLKNASDGALMDDNQNEWGDEDLETKKFRFEEPVVLPDLSDQTDHRQWTQQHLDAADLRMSAMAPTPPQGEVDADCMDVNVRGPDGFTPLMIASCSGGGLETGNSEEEEDAPAVISDFIYQGASLHNQTDRTGETALHLAARYSRSDAAKRLLEASADANIQDNMGRTPLHAAVSADAQGVFQILLRNRATDLDARMHDGTTPLILAARLAVEGMLEDLINSHADVNAVDDLGKSALHWAAAVNNVDAAVVLLKNGANKDMQNNKEETPLFLAAREGSYETAKVLLDHFANRDITDHMDRLPRDIAQERMHHDIVRLLDEYNLVRSPQ
notes: Notch1 intracellular domain, mouse, residues 1744-2113; not the full-length NICD; also called N1ICD1; NICD
For B3, in the experiment with mouse RBPJ (aa 53–474), the binding result is recorded as “binds”.

B4: fly Mastermind (aa 87–307) (domain or fragment, Drosophila, UniProt P21519 87-307, looked up)
chain: PYNANLGATGGIAGITGGNGAGGPTNPGAVPTAPGDTMPTKRMPVVDRLRRRMENYRRRQTDCVPRYEQAFNTVCEQQNQETTVLQKRFLESKNKRAAKKTDKKLPDPSQQHQQQQHQQQQQHQQHQQHQQAQTMLAGQLQSSVHVQQKFLKRPAEDVDNGPDSFEPPHKLPNNNNNSNSNNNNGNANANNGGNGSNTGNNTNNNGNSTNNNGGSNNNGSE
notes: Mastermind, Drosophila, residues 87-307; not the full-length protein; also called Mam
B4: in the experiment with fly Su(H) (aa 98–523), the binding result is “binds”.
